# Source: paper doi:10.1101/356592 (bioRxiv, 2018)
# B1: His6-tagged Dmc1 (natural protein, Saccharomyces cerevisiae, UniProt P25453 1-334, looked up)
# chain: MSVTGTEIDSDTAKNILSVDELQNYGINASDLQKLKSGGIYTVNTVLSTTRRHLCKIKGLSEVKVEKIKEAAGKIIQVGFIPATVQLDIRQRVYSLSTGSKQLDSILGGGIMTMSITEVFGEFRCGKTQMSHTLCVTTQLPREMGGGEGKVAYIDTEGTFRPERIKQIAEGYELDPESCLANVSYARALNSEHQMELVEQLGEELSSGDYRLIVVDSIMANFRVDYCGRGELSERQQKLNQHLFKLNRLAEEFNVAVFLTNQVQSDPGASALFASADGRKPIGGHVLAHASATRILLRKGRGDERVAKLQDSPDMPEKECVYVIGEKGITDSSD
# How the values were obtained:
# [1] = target: Replication protein A (RPA) (Saccharomyces cerevisiae, UniProt P22336 1-621; P26754 1-273; P26755 1-122); assay: pull-down
# His6-tagged Dmc1 = target: B1; assay: co-IP
# Sequence of Replication protein A (RPA) (P22336 whole entry, chain 1 of 3): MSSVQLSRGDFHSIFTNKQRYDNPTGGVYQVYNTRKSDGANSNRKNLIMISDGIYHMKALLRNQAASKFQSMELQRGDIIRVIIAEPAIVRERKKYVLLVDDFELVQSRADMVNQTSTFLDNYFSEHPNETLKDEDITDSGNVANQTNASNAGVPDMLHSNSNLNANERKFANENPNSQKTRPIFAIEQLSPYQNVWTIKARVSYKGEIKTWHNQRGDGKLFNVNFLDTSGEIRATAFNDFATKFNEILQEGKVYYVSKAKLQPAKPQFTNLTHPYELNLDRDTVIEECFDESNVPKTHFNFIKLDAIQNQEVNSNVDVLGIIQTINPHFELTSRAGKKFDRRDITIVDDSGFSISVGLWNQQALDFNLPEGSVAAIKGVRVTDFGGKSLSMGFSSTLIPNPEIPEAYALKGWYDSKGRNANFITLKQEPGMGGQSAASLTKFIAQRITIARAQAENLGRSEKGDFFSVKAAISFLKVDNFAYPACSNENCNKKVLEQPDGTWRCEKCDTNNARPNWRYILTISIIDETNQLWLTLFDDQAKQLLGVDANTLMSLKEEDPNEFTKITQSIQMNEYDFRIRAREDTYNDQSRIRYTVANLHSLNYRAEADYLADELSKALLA
# Sequence of Replication protein A (RPA) (P26754 whole entry, chain 2 of 3): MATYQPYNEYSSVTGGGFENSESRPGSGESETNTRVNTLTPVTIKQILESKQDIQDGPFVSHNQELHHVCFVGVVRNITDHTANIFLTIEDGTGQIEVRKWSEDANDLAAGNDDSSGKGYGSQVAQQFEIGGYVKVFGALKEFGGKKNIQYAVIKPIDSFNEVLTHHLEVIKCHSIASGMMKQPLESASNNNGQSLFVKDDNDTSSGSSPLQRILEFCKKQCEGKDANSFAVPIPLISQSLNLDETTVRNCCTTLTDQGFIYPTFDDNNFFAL
# Sequence of Replication protein A (RPA) (P26755 whole entry, chain 3 of 3): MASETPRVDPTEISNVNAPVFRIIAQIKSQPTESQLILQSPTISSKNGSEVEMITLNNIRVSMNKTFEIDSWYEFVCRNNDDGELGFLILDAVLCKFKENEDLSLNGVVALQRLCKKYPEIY
binding result [1],binding result (His6-tagged Dmc1),Binder
binds,,B1
binds,binds,"His6-tagged Mei5-Sae3 heterodimer (complex, Saccharomyces cerevisiae) chain 1: MHNQEEWLDKDKTLVNEEENTCINHSYTKKDTNNYRVGKSGIKDLKKPTNQKEIAIKNRELTKQLTLLRQENNHLQQACKILSENKIIENRKSIEKWRTICEMELSFILNSTLIKINRMGGYKDFLEKEMEAKKRRLEYQIDNGMEDQICEIKESDDFRQLSEVEKQEWESQMNEQLKELEKKKIAELEKLNKVLHDSEGKDFGMAELCTRLKLDYSLIFPQ chain 2: MNYLETQLNKKQKQIQEYESMNGNLIKMFEQLSKEKKNDETPKKISSTYIKELKEYNELRDAGLRLAQIIADEKQCKIKDVFEEIGYSMKD"
